T1: FcγRIIb extracellular domain with C-terminal His tag (human, UniProt P31994 43-217)
T1 construct: extracellular domain; expressed in FreeStyle293 cells; analyte in Biacore; also called FcgRIIb; 2b
T1 sequence (looked up): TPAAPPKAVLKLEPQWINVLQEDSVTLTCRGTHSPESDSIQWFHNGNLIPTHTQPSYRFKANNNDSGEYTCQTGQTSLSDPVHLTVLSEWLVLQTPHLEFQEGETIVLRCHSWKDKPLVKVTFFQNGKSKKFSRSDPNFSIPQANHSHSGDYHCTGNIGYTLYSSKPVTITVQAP


What was measured:
[1] = target: T2, FcγRIa extracellular domain with C-terminal His tag (human, UniProt P12314 16-292); assay: SPR (Biacore), captured antibody, FcγR as analyte; relative binding
T2 construct: extracellular domain; expressed in FreeStyle293 cells; analyte in Biacore; also called FcgRI; 1a

[2] = target: T1, FcγRIIb extracellular domain with …; assay: as above
FcγRIa = target: T3, FcγRIa (human, UniProt P12314 16-292); assay: SPR (Biacore); He Ab relative to HeCon Ab = 100
T3 construct: extracellular domain; also called FcgRI; 1a
Method in brief: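 Binding of FcγR analyte to peptide-captured antibody is read by surface plasmon resonance at 25° C in HBS-EP+ buffer. Capture surfaces carry antigen peptide, either amine-coupled or biotin/streptavidin-bound.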

T3 sequence (P12314 16-292): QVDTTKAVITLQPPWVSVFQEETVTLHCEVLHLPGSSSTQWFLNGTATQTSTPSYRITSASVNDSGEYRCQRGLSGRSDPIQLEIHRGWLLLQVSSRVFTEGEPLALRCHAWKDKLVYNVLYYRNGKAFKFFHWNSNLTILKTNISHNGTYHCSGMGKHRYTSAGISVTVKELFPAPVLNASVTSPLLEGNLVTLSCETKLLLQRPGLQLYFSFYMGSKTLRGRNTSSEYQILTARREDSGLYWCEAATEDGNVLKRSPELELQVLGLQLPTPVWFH
T2 sequence (P12314 16-292): as above

He/Con_1a [1]	He/Con_2b [2]	He/Con_1a (FcγRIa)	Binder
100 % of HeCon Ab (GpH7-A5/GpH7-B3/GpL16-k0 = 100)	89.2 % of HeCon Ab (GpH7-A5/GpH7-B3/GpL16-k0 = 100)		GpH7-A5/GpH7-B3 variant K326_12R/GpL16-k0 (antibody, human IgG1, kappa, He Ab; IgG1, mutation in one H chain) heavy 1: not shown heavy 2: not shown light: DIVMTQSPLSLPVTPGEPASISCQASESLVHSNRNTYLHWYLQKPGQSPQLLIYKVSNRFSGVPDRFSGSGSGTDFTLKISRVEAEDVGVYYCSQNTHVPPTFGQGTKVEIERTVAAPSVFIFPPSDEQLKSGTASVVCLLNNFYPREAKVQWKVDNALQSGNSQESVTEQDSKDSTYSLSSTLTLSKADYEKHKVYACEVTHQGLSSPVTKSFNRGEC
103 % of HeCon Ab (GpH7-A5/GpH7-B3/GpL16-k0 = 100)	94.8 % of HeCon Ab (GpH7-A5/GpH7-B3/GpL16-k0 = 100)		GpH7-A5/GpH7-B3 variant Q295_10E/GpL16-k0 (antibody, human IgG1, kappa, He Ab; IgG1, mutation in one H chain) heavy 1: not shown heavy 2: not shown light: DIVMTQSPLSLPVTPGEPASISCQASESLVHSNRNTYLHWYLQKPGQSPQLLIYKVSNRFSGVPDRFSGSGSGTDFTLKISRVEAEDVGVYYCSQNTHVPPTFGQGTKVEIERTVAAPSVFIFPPSDEQLKSGTASVVCLLNNFYPREAKVQWKVDNALQSGNSQESVTEQDSKDSTYSLSSTLTLSKADYEKHKVYACEVTHQGLSSPVTKSFNRGEC
		100 % of control	GpH7-A5/GpH7-B3 variant Q295_09D/GpL16-k0 (antibody, human IgG1, kappa, also called He Ab Q295_09D) heavy 1: not shown heavy 2: not shown light: DIVMTQSPLSLPVTPGEPASISCQASESLVHSNRNTYLHWYLQKPGQSPQLLIYKVSNRFSGVPDRFSGSGSGTDFTLKISRVEAEDVGVYYCSQNTHVPPTFGQGTKVEIERTVAAPSVFIFPPSDEQLKSGTASVVCLLNNFYPREAKVQWKVDNALQSGNSQESVTEQDSKDSTYSLSSTLTLSKADYEKHKVYACEVTHQGLSSPVTKSFNRGEC
		102 % of control	GpH7-A5/GpH7-B3 variant P271_16H/GpL16-k0 (antibody, human IgG1, kappa, also called He Ab P271_16H) heavy 1: not shown heavy 2: not shown light: DIVMTQSPLSLPVTPGEPASISCQASESLVHSNRNTYLHWYLQKPGQSPQLLIYKVSNRFSGVPDRFSGSGSGTDFTLKISRVEAEDVGVYYCSQNTHVPPTFGQGTKVEIERTVAAPSVFIFPPSDEQLKSGTASVVCLLNNFYPREAKVQWKVDNALQSGNSQESVTEQDSKDSTYSLSSTLTLSKADYEKHKVYACEVTHQGLSSPVTKSFNRGEC
101 % of HeCon Ab (GpH7-A5/GpH7-B3/GpL16-k0 = 100)	70.4 % of HeCon Ab (GpH7-A5/GpH7-B3/GpL16-k0 = 100)		GpH7-A5/GpH7-B3 variant Q295_11K/GpL16-k0 (antibody, human IgG1, kappa, He Ab; IgG1, mutation in one H chain) heavy 1: not shown heavy 2: not shown light: DIVMTQSPLSLPVTPGEPASISCQASESLVHSNRNTYLHWYLQKPGQSPQLLIYKVSNRFSGVPDRFSGSGSGTDFTLKISRVEAEDVGVYYCSQNTHVPPTFGQGTKVEIERTVAAPSVFIFPPSDEQLKSGTASVVCLLNNFYPREAKVQWKVDNALQSGNSQESVTEQDSKDSTYSLSSTLTLSKADYEKHKVYACEVTHQGLSSPVTKSFNRGEC
		101 % of control	GpH7-A5/GpH7-B3 variant P238_15Y/GpL16-k0 (antibody, human IgG1, kappa, also called He Ab P238_15Y) heavy 1: not shown heavy 2: not shown light: DIVMTQSPLSLPVTPGEPASISCQASESLVHSNRNTYLHWYLQKPGQSPQLLIYKVSNRFSGVPDRFSGSGSGTDFTLKISRVEAEDVGVYYCSQNTHVPPTFGQGTKVEIERTVAAPSVFIFPPSDEQLKSGTASVVCLLNNFYPREAKVQWKVDNALQSGNSQESVTEQDSKDSTYSLSSTLTLSKADYEKHKVYACEVTHQGLSSPVTKSFNRGEC
		101 % of control	GpH7-A5/GpH7-B3 variant P329_01G/GpL16-k0 (antibody, human IgG1, kappa, also called He Ab P329_01G) heavy 1: not shown heavy 2: not shown light: DIVMTQSPLSLPVTPGEPASISCQASESLVHSNRNTYLHWYLQKPGQSPQLLIYKVSNRFSGVPDRFSGSGSGTDFTLKISRVEAEDVGVYYCSQNTHVPPTFGQGTKVEIERTVAAPSVFIFPPSDEQLKSGTASVVCLLNNFYPREAKVQWKVDNALQSGNSQESVTEQDSKDSTYSLSSTLTLSKADYEKHKVYACEVTHQGLSSPVTKSFNRGEC
		102 % of control	GpH7-A5/GpH7-B3 variant P238_10E/GpL16-k0 (antibody, human IgG1, kappa, also called He Ab P238_10E) heavy 1: not shown heavy 2: not shown light: DIVMTQSPLSLPVTPGEPASISCQASESLVHSNRNTYLHWYLQKPGQSPQLLIYKVSNRFSGVPDRFSGSGSGTDFTLKISRVEAEDVGVYYCSQNTHVPPTFGQGTKVEIERTVAAPSVFIFPPSDEQLKSGTASVVCLLNNFYPREAKVQWKVDNALQSGNSQESVTEQDSKDSTYSLSSTLTLSKADYEKHKVYACEVTHQGLSSPVTKSFNRGEC
		103 % of control	GpH7-A5/GpH7-B3 variant P271_15Y/GpL16-k0 (antibody, human IgG1, kappa, also called He Ab P271_15Y) heavy 1: not shown heavy 2: not shown light: DIVMTQSPLSLPVTPGEPASISCQASESLVHSNRNTYLHWYLQKPGQSPQLLIYKVSNRFSGVPDRFSGSGSGTDFTLKISRVEAEDVGVYYCSQNTHVPPTFGQGTKVEIERTVAAPSVFIFPPSDEQLKSGTASVVCLLNNFYPREAKVQWKVDNALQSGNSQESVTEQDSKDSTYSLSSTLTLSKADYEKHKVYACEVTHQGLSSPVTKSFNRGEC
100 % of HeCon Ab (GpH7-A5/GpH7-B3/GpL16-k0 = 100)	60.8 % of HeCon Ab (GpH7-A5/GpH7-B3/GpL16-k0 = 100)		GpH7-A5/GpH7-B3 variant Q295_09D/GpL16-k0 (antibody, human IgG1, kappa, He Ab; IgG1, mutation in one H chain) heavy 1: not shown heavy 2: not shown light: DIVMTQSPLSLPVTPGEPASISCQASESLVHSNRNTYLHWYLQKPGQSPQLLIYKVSNRFSGVPDRFSGSGSGTDFTLKISRVEAEDVGVYYCSQNTHVPPTFGQGTKVEIERTVAAPSVFIFPPSDEQLKSGTASVVCLLNNFYPREAKVQWKVDNALQSGNSQESVTEQDSKDSTYSLSSTLTLSKADYEKHKVYACEVTHQGLSSPVTKSFNRGEC
